{"source": "paper PMC13035910", "about": "“Dbf4-dependent kinase finetunes Ino80 function at chromosome replication origins” (Nature Communications, 2026)", "binders": {"B1": {"name": "N-module of the INO80 complex (Nhp10/Ies1/Ies3/Ies5) (complex)", "chain 1": "MSVEEKKRRLEELKDQNVVLGLAIQRSRLSVKRLKLEYGVLLERLESRIELDPELNCEDPLPTLASFKQELLTKPFRKSKTKRHKVKERDPNMPKRPTNAYLLYCEMNKERIRQNGSLDVTRDLAEGWKNLNEQDRKPYYKLYSEDRERYQMEMEIYNKKISNIDADDDKEENEQKIKNNEEGSSTKVADSKGGEDGSLVSSN", "chain 2": "MGKRVYDPIHDTFQLREDNSDETKADSPMQSVKSGSQEEASPSSIQSETETVTTKSIPVIHEIEIDDKNDDDSTQSEEENTNILLNFEPSTVPEATGASTATGPVTTNTVRRKPKESNASKYNRHLKKPDGEPFNRKDIQFSFMQELLMDKRQIFTNVLKPLYKNSIVPINIDGDKLSINVTDKEYDARTFVFNDKLTFAQLYVLTIATSIKCSKILRDKLLLDQQVAFSTCVLALLVNIGRLNTTINFYLEMTSQLRTFHSVPVLQLHANDPKLLQDTPRLKSILKNLPWGNEQLSLMETYKKVDQNDGEVDTVNKFNIINMLFSICDNSGLIDKRFLSKYVEVESKAQEQDMVDEQNEVKETEAENEKQESKAAYATTLFDILDYSKYEPKDRSNILIWLLYIHLETNLSQEEVEESVRFFNGLEDGAPAGKFILRCTERSYDTDPEDELEFGANQRIKRREFMSKMEEGRKRERTNVTEVKKPSIGGDKSEEDGEGEDDKSEETVEETRSLLTPTPILESSSPMTLNRKKVTPQLPKVTPAAPTETEEEITSAAIIDKNDLNLTPLKKYNSSATVNKVDKLISLDLNKHVSENGKTQEEFLADLKKSQVPNRLKRRDIGLIKIFNEFEDIPVASVLGIRGKKRKKFKDNLLGFETDFMKNLGASKKVLLNKIERAEIDDEEATAMFKLE", "chain 3": "MKFEDLLATNKQVQFAHAATQHYKSVKTPDFLEKDPHHKKFHNADGLNQQGSSTPSTATDANAASTASTHTNTTTFKRHIVAVDDISKMNYEMIKNSPGNVITNANQDEIDISTLKTRLYKDNLYAMNDNFLQAVNDQIVTLNAAEQDQETEDPDLSDDEKIDILTKIQENLLEEYQKLSQKERKWFILKELLLDANVELDLFSNRGRKASHPIAFGAVAIPTNVNANSLAFNRTKRRKINKNGLLENIL", "chain 4": "MPSKDPESVIDKEIRKISARNDELIKQDGTLKREYTTLLRKVSSVITVLNSIDDADTGSAETELPRLISQATVEKVPELKWYNDQISLITEKLEDDEDIEVPEELMDAYTLYKETPLLYNDTHTP", "notes": "Nhp10, N-module subunit of INO80, budding yeast; endogenous protein; Ies1, N-module subunit of INO80, budding yeast; Ies3, N-module subunit of INO80, budding yeast; Ies5, N-module subunit of INO80, budding yeast; Stood in the cross-linking assay as part of the whole purified complex; also called NHP10 module; N-module subunits; source: endogenously expressed in S. cerevisiae (S288c background; …)"}, "B2": {"name": "Ino80 subunit of the INO80 complex (natural protein, UniProt P53115 1-1489, looked up)", "chain": "MSLAVLLNKEDKDISDFSKTTAGKSAKKNSRERVADVAPTRVLDKKQAYLSQLNSEFNRIKRRDSIEQLYQDWKFINLQEFELISEWNQQSKDWQFDNTNDSQDLHFKKLYRDMSMINKEWAEYQSFKNANLSDIINEKDADEDEEDDEDELEDGEEDMEEDEASTGRHTNGKSMRGNGIQKSRKKDAAAAAAIGKAIKDDQTHADTVVTVNGDENEDGNNGEDEDNDNDNENNNDNDNDNENENDNDSDNDDEEENGEEDEEEEEIEDLDEEDFAAFEEQDDNDDEDFNPDVEKRRKRSSSSSSSTKLSMNSLSLITSKKINKNITINSDRPKIVRELIKMCNKNKHQKIKKRRFTNCIVTDYNPIDSKLNIKITLKQYHVKRLKKLINDAKREREREEALKNNVGLDGNDLDNDEDGSESHKRRKLNNNTANGADDANKRKFNTRHGLPTYGMKMNAKEARAIQRHYDNTYTTIWKDMARKDSTKMSRLVQQIQSIRSTNFRKTSSLCAREAKKWQSKNFKQIKDFQTRARRGIREMSNFWKKNEREERDLKKKIEKEAMEQAKKEEEEKESKRQAKKLNFLLTQTELYSHFIGRKIKTNELEGNNVSSNDSESQKNIDISALAPNKNDFHAIDFDNENDEQLRLRAAENASNALAETRAKAKQFDDHANAHEEEEEEDELNFQNPTSLGEITIEQPKILACTLKEYQLKGLNWLANLYDQGINGILADEMGLGKTVQSISVLAHLAENHNIWGPFLVVTPASTLHNWVNEISKFLPQFKILPYWGNANDRKVLRKFWDRKNLRYNKNAPFHVMVTSYQMVVTDANYLQKMKWQYMILDEAQAIKSSQSSRWKNLLSFHCRNRLLLTGTPIQNSMQELWALLHFIMPSLFDSHDEFNEWFSKDIESHAEANTKLNQQQLRRLHMILKPFMLRRVKKNVQSELGDKIEIDVLCDLTQRQAKLYQVLKSQISTNYDAIENAATNDSTSNSASNSGSDQNLINAVMQFRKVCNHPDLFERADVDSPFSFTTFGKTTSMLTASVANNNSSVISNSNMNLSSMSSNNISNGKFTDLIYSSRNPIKYSLPRLIYEDLILPNYNNDVDIANKLKNVKFNIFNPSTNYELCLFLSKLTGEPSLNEFFRVSTTPLLKRVIERTNGPKNTDSLSFKTITQELLEVTRNAPSEGVMASLLNVEKHAYEREYLNCIQRGYHPNVSAPPVTIEVLGSSHVTNSINNELFDPLISQALSDIPAITQYNMHVKKGIPVEDFPKTGLFPEPLNKNFSSNISMPSMDRFITESAKLRKLDELLVKLKSEGHRVLIYFQMTKMMDLMEEYLTYRQYNHIRLDGSSKLEDRRDLVHDWQTNPEIFVFLLSTRAGGLGINLTAADTVIFYDSDWNPTIDSQAMDRAHRLGQTRQVTVYRLLVRGTIEERMRDRAKQKEQVQQVVMEGKTQEKNIKTIEVGENDSEVTREGSKSISQDGIKEAASALA", "notes": "Ino80, motor ATPase and scaffold subunit of the INO80 complex, budding yeast; endogenous protein with chromosomally inserted tag; Stood in the cross-linking assay as part of the whole purified complex; also called Ino80 scaffold; motor ATPase Ino80; source: endogenously expressed in S. cerevisiae (S288c background; wild-type strain and yPB5), purified within the INO80 or INO80-AA complex …"}, "B3": {"name": "the rest of the N-module of the INO80 complex (Nhp10/Ies3/Ies5) (complex)", "chain 1": "B1 chain 1", "chain 2": "B1 chain 3", "chain 3": "B1 chain 4", "notes": "Nhp10, N-module subunit of INO80, budding yeast; endogenous protein; Ies3, N-module subunit of INO80, budding yeast; Ies5, N-module subunit of INO80, budding yeast; source: endogenously expressed in S. cerevisiae (S288c background; wild-type strain and yPB5), purified within the INO80 or INO80-AA complex (anti-FLAG M2 resin, Mono Q); copies: + +"}}, "test_in_all_cases": "cross-linking; DSBU cross-linking with mass spectrometry of the purified wild-type INO80 complex; 58 uM DSBU, 20 min, 30 C, 1200 rpm; 25 mM HEPES-NaOH pH 7.2, 300 mM NaCl, 5% glycerol, 1 mM DTT, 4 mM MgCl2; repeated with an independent batch", "details_in_all_cases": "both partners purified", "key": {"[1]": {"target": "B2"}, "[2]": {"target": "T1, A-module of the INO80 complex (Arp4/Arp8/Act1(actin)/Taf14/Ies4) (S. cerevisiae (endogenous, S288c …, UniProt P80428 1-489; Q12386 1-881; P60010 1-375; P35189 1-244; Q08561 1-116)", "T1 construct": "Arp4, A-module subunit of INO80, budding yeast; endogenous protein; Arp8, A-module subunit of INO80, budding yeast; endogenous wild-type protein; Act1 (actin), A-module subunit of INO80, budding yeast; Taf14, A-module subunit of INO80, budding yeast; Ies4, A-module subunit of INO80, budding yeast; Stood in the cross-linking assay as part of the whole purified wild-type complex; also called ARP8 …"}, "[3]": {"target": "T2, Ies1 subunit of the INO80 complex (S. cerevisiae (endogenous, S288c …, UniProt P43579 1-692))", "T2 construct": "Ies1, N-module subunit of INO80, budding yeast; endogenous protein; Stood in the cross-linking assay as part of the whole purified complex; source: endogenously expressed in S. cerevisiae (S288c background; wild-type strain and yPB5), purified within the INO80 or INO80-AA complex (anti-FLAG M2 resin, Mono Q)", "T2 sequence (looked up)": "B1 chain 2"}}, "data": [{"binder": "B1", "values": [{"measurement": "binding result", "setting": "[1]", "value": "binds"}]}, {"binder": "B2", "values": [{"measurement": "binding result", "setting": "[2]", "value": "binds"}]}, {"binder": "B3", "values": [{"measurement": "binding result", "setting": "[3]", "value": "binds"}]}]}
